This is an account of results in paper PMC8825603 (Theranostics, 2022).

Test in all cases: cellular equilibrium binding of GpL (luciferase)-tagged antibody variants; HEK293 cells transiently transfected with a CD40, 41BB or PD-L1 expression plasmid; increasing concentrations of GpL-tagged antibody variants (cell culture supernatants); 37 °C, 1.5 h; washed three times with ice cold PBS; binding to empty vector cells subtracted; one site specific binding fit
Common to all, as to conditions: partners not purified

One experiment addresses T1, CD40 (Homo sapiens (species ), UniProt P25942).
T1 construct: CD40, expressed on HEK293 cells from an expression plasmid (gift of Pascal Schneider); also called cluster of differentiation 40; source: HEK293, transiently transfected with a CD40 expression plasmid, on cells

Another experiment concerns the target T2, 41BB (Homo sapiens (species ), UniProt Q07011).
T2 construct: 41BB, expressed on HEK293 cells from an expression plasmid (gift of Pascal Schneider); source: HEK293, transiently transfected with a 41BB expression plasmid, on cells

In experiment [1] the target is T3, PDL1 (UniProt Q9NZQ7).
T3 construct: PDL1, expressed on HEK293 cells from the expression plasmid pCMV6-XL4 (Origene Technologies); also called PD1 Ligand 1; PD1L; source: HEK293, transiently transfected with a PDL1 expression plasmid (pCMV6-XL4, Origene), on cells

Experiment [2] deals with T3, PDL1. This is another data set of the same source.

T3 sequence (Q9NZQ7 19-290): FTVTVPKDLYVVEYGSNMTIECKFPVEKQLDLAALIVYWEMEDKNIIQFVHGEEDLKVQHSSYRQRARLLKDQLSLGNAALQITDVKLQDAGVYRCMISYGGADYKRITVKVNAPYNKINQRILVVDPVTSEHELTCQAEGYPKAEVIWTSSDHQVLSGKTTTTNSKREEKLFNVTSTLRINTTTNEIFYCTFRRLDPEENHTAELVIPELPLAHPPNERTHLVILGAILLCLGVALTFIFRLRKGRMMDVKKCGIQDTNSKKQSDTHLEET
T1 sequence (P25942 21-277): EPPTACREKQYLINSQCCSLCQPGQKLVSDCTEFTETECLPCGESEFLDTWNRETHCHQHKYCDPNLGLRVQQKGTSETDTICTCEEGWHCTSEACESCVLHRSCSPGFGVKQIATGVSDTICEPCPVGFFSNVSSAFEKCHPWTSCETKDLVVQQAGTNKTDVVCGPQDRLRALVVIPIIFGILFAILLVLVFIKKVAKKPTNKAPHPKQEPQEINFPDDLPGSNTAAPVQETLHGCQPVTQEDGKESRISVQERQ
T2 sequence (Q07011 24-255): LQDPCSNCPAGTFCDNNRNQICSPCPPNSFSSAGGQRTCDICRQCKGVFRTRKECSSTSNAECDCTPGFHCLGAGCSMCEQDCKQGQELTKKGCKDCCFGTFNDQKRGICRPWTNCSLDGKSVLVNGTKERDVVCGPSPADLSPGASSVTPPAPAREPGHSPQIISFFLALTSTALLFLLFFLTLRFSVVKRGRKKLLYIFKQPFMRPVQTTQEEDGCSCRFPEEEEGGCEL

B1: αPDL1-N297A-GpL (antibody, V domains shown)
VH: EVQLLESGGGLVQPGGSLRLSCAASGFTFSSYIMMWVRQAPGKGLEWVSSIYPSGGITFYADTVKGRFTISRDNSKNTLYLQMNSLRAEDTAVYYCARIKLGTVTTVDYWGQGTLVTVSS
VL: QSALTQPASVSGSPGQSITISCTGTSSDVGGYNYVSWYQQHPGKAPKLMIYDVSNRPSGVSNRFSGSKSGNTASLTISGLQAEDEADYYCSSYTSSSTRVFGTGTKVTVL
notes: VH of the anti-PDL1 antibody Avelumab; linker L6; constant heavy chain of human IgG1, aa 145-476 of GenBank AAA02914.1, with N297A (the footnote prints 'A to N mutation at position 327'); VL of the anti-PDL1 antibody Avelumab; linker L4; constant light chain, aa 105-214 of GenBank BAA97671.1; numbers count on: GenBank BAA97671.1; IgG1(N297A); also called αPDL1-IgG1(N297A); parental anti-PDL1 …
Consider B1, for which the binding result with CD40 and with 41BB was “no binding” in each case.

B2: α41BB-Fab2-GpL (Fab, V domains shown)
VH: QVQLQQSGAEVIKPGASVKLSCKASGYTFSSYWMHWVRQAPGQGLEWIGEINPGNGHTNYNEKFKSRATLTGDTSTSTVYMELSSLRSEDTAVYYCARSFTTARAFAYWGQGTLVTVSS
VL: DIVMTQSPAFLSVTPGEKVTITCRASQTISDYLHWYQQKPDQAPKLLIKYASQSISGIPSRFSGSGSGTDFTFTISSLEAEDAATYYCQDGHSFPPTFGQGTKLEIK
notes: VH of the anti-41BB antibody HBBK4; linker L6; CH1: constant heavy chain of human IgG1, aa 145-260 of GenBank AAA02914.1; numbers count on: GenBank AAA02914.1; VL of the anti-41BB antibody HBBK4; linker L4; constant light chain, aa 105-214 of GenBank BAA97671.1; numbers count on: GenBank BAA97671.1; Bivalent Fab2 format; source: HEK293, transiently transfected (PEI), cell culture supernatant; …
B2: in the experiment with PDL1 [1], the binding result is reported as “no binding”.

B3: α41BB-N297A-GpL (antibody, V domains shown)
VH: QVQLQQSGAEVIKPGASVKLSCKASGYTFSSYWMHWVRQAPGQGLEWIGEINPGNGHTNYNEKFKSRATLTGDTSTSTVYMELSSLRSEDTAVYYCARSFTTARAFAYWGQGTLVTVSS
VL: DIVMTQSPAFLSVTPGEKVTITCRASQTISDYLHWYQQKPDQAPKLLIKYASQSISGIPSRFSGSGSGTDFTFTISSLEAEDAATYYCQDGHSFPPTFGQGTKLEIK
notes: VH of the anti-41BB antibody HBBK4; linker L6; constant heavy chain of human IgG1, aa 145-476 of GenBank AAA02914.1, with N297A (the footnote prints 'A to N mutation at position 327'); VL of the anti-41BB antibody HBBK4; linker L4; constant light chain, aa 105-214 of GenBank BAA97671.1; numbers count on: GenBank BAA97671.1; IgG1(N297A); also called α41BB-IgG1(N297A); source: HEK293, transiently …
On to B3, for which, in the experiment with PDL1 [1], the binding result was “no binding”.

B4: αCD40-Fab2-GpL (Fab, V domains shown)
VH: QVQLVQSGAEVKKPGASVKVSCTASGFNIKDYYVHWVKQAPGQGLEWMGRIDPEDGDSKYAPKFQGKATMTADTSTSTVYMELSSLRSEDTAVYYCTTSYYVGTYGYWGQGTLVTVSS
VL: DIQMTQSPSSLSASVGDRVTITCSASSSVSYMLWFQQKPGKAPKLLIYSTSNLASGVPSRFSGSGSGTDFTLTISSLQPEDFATYYCQQRTFYPYTFGGGTKVEIK
notes: VH of the anti-CD40 antibody C; linker L6; CH1: constant heavy chain of human IgG1, aa 145-260 of GenBank AAA02914.1; numbers count on: GenBank AAA02914.1; VL of the anti-CD40 antibody C; linker L4; constant light chain, aa 105-214 of GenBank BAA97671.1; numbers count on: GenBank BAA97671.1; Bivalent Fab2 format; source: HEK293, transiently transfected (PEI), cell culture supernatant; copies: 2 + …
As for B4, the binding result with PDL1 [2] is recorded as “no binding”.

B5: αCD40-N297A-GpL (antibody, V domains shown)
VH: QVQLVQSGAEVKKPGASVKVSCTASGFNIKDYYVHWVKQAPGQGLEWMGRIDPEDGDSKYAPKFQGKATMTADTSTSTVYMELSSLRSEDTAVYYCTTSYYVGTYGYWGQGTLVTVSS
VL: DIQMTQSPSSLSASVGDRVTITCSASSSVSYMLWFQQKPGKAPKLLIYSTSNLASGVPSRFSGSGSGTDFTLTISSLQPEDFATYYCQQRTFYPYTFGGGTKVEIK
notes: VH of the anti-CD40 antibody C; linker L6; constant heavy chain of human IgG1, aa 145-476 of GenBank AAA02914.1, with N297A (the footnote prints 'A to N mutation at position 327'); VL of the anti-CD40 antibody C; linker L4; constant light chain, aa 105-214 of GenBank BAA97671.1; numbers count on: GenBank BAA97671.1; IgG1(N297A); also called αCD40-IgG1(N297A); source: HEK293, transiently …
Consider B5, for which the binding result with PDL1 [2] was “no binding”.
